Reference: patent publication US20160257759A1 (SORRENTO THERAPEUTICS, published 2016)

T1: biotinylated human delta-like 1 (DLL1) (human, UniProt O00548 18-540, limits assumed, biotinylated (sites not given))
T1 sequence (looked up): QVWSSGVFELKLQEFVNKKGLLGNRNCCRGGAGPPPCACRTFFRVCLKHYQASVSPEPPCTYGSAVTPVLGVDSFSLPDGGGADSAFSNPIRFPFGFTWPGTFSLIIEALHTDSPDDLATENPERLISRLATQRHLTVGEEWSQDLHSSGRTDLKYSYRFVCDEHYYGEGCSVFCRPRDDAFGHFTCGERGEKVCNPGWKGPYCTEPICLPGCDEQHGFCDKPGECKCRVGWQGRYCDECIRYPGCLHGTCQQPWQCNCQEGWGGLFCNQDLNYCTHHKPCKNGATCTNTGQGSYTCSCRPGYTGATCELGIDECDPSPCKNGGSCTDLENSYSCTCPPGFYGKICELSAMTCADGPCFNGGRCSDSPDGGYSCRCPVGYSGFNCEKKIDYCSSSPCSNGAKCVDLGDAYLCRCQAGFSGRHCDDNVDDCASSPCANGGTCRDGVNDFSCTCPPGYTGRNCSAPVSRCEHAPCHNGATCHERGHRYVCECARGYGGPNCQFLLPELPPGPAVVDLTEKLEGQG


Key:
[1] = biological target: T2, human JAG1 on cells (K562 cells; Calu-6 cells) (human, UniProt P78504 34-1218); assay: cell-based or functional assay
T2 sequence (P78504 34-1218): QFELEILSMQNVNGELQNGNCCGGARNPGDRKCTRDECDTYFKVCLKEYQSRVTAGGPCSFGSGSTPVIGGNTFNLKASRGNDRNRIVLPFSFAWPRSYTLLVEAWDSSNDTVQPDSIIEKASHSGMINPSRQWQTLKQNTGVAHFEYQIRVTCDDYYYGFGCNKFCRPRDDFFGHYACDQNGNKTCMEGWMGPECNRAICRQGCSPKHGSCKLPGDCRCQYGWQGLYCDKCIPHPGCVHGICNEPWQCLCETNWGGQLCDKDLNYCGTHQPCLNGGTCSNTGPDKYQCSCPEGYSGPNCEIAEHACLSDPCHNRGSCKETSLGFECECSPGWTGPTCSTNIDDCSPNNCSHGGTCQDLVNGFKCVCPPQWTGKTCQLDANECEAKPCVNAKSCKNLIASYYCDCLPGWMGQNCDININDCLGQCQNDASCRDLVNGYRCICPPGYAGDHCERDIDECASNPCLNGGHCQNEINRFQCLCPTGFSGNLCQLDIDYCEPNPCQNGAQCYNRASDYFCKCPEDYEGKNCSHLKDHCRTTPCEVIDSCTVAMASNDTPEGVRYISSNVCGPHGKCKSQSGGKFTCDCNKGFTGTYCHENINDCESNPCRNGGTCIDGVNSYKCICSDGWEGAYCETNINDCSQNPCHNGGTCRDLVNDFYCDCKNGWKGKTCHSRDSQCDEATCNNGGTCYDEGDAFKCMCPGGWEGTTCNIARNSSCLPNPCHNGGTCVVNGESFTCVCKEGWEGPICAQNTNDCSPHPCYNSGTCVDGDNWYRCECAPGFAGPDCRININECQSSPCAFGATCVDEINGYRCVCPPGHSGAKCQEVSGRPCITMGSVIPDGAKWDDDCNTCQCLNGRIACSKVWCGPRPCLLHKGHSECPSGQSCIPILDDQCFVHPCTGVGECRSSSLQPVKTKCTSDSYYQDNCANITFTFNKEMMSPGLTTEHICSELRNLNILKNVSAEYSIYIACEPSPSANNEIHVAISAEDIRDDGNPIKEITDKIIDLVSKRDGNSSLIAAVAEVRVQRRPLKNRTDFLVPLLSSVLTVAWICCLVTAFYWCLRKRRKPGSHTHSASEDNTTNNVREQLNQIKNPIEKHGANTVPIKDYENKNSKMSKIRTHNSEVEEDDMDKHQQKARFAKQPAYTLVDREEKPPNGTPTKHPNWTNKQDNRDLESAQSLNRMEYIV

[2] = biological target: T2, human JAG1 on cells (K562 cells; Calu-6 …); assay: flow cytometry on K562 cells, IgG titrated, PE anti-human IgG, median fluorescence
Protocol: This example describes a cellular binding assay to determine the EC₅₀ for certain anti-JAG1 antibodies binding to K562 cells (ATCC CCL-243), where the concentration at which 50% binding saturation (EC₅₀) is reached. In this example, K562 cells were resuspended in FACS Buffer (2% Fetal Bovine Serum in PBS) at 1×10⁶ cells/ml. 50 μl (0.5×10⁵ cells) were aliquoted into the wells of a 96-well plate. Plated cells were spun down and the supernatant discarded. Cells were resuspended in serially diluted concentrations of each JAG1 IgG in 30 μl FACS Buffer done in triplicate. The antibodies and cells were incubated for 1 hr at 4° C. and then washed 2× with FACS Buffer. Cells were resuspended in 50 μl goat anti-human IgG (γ-chain specific)-PE-conjugated secondary antibody (Southern Biotech #2040-09) diluted 1:750 in FACS Buffer. Cells were further incubated in the dark for 30 min at 4° C. and then washed 1× with FACS Buffer. The cells were resuspended in a final volume of 30 μl FACS Buffer and analyzed using an Intellicyt Flow Cytometer. Median fluorescence in the FL-2H channel was determined using FlowJo software and EC₅₀ value was determined by a variable slope non-linear regression using ForeCyte software.

[3] = biological target: T1, biotinylated human delta-like 1 (DLL1); assay: capture ELISA: JG1H7 IgG captured on anti-human kappa, serially diluted biotinylated DLL1, neutravidin-AP, PNPP, absorbance
Protocol: (§1) Finally, an ELISA assay was carried out to determine antibody cross-reactivity to delta-like 1 (DLL1) and delta-like 2 (DLL2). One ELISA plate was coated with anti-human lambda and another ELISA plate was coated with anti-human kappa overnight at 4° C. The next morning each plate was blocked with a 1:1 mixture of casein:Super Block for 2 hours at room temperature. The B10 IgG was diluted to 0.3 μg/ml in block and added to the anti-human lambda coated wells, while the JG1H7 IgG was diluted to 0.3 μg/ml in block and added to the anti-human kappa coated wells and incubated at room temperature for 3 hours. As a control, other wells were treated with only block. After washing, serially-diluted biotinylated antigen (JAG1, DLL1, DLL2) was added to a column with captured antibody and a control column with no antibody, and incubated 1 hour at room temperature. After washing, neutravidin-AP was added, incubated for 20 min at room temperature, the plate washed and developed with 1-step PNPP, and the plate analyzed in a plate reader.

[4] = biological target: T3, Recombinant human JAG1/His (human, UniProt P78504 34-1046, limits assumed); assay: SPR (BiaCore), antibody captured on anti-human Fc CM5 chip, JAG1/His as analyte, 1:1 Langmuir fit
T3 construct: Analyte of the BiaCore assay; also called human JAW [sic]; not shown: His tag
Protocol: The binding affinity of antibody JG1H7 for human JAG1 was tested using a BiaCore assay. Specifically, anti-human Fc antibody (GE, BR-1008-39) was immobilized on a CM5 sensor chip to approximately 700 RU using standard NHS/EDC coupling methodology. Antibodies (about 10 μg/ml) were captured for 60 s at a flow rate 10 μl/min. Recombinant human JAG1/His was serially diluted in running buffer (HBS-EP). All measurements were conducted with a flow rate of 30 μL/min Surfaces were regenerated with 3M MgCl₂ for 60 s. A 1:1 (Langmuir) binding model was used to fit the data.

[5] = biological target: T4, human JAG2-Fc (human, UniProt Q9Y219 24-1080, limits assumed); assay: ELISA: plate coated with human JAG2-Fc, serially diluted IgG, labeled goat anti-human Fd antibody, absorbance
T4 construct: not shown: Fc
T4 sequence (Q9Y219 24-1080 limits assumed): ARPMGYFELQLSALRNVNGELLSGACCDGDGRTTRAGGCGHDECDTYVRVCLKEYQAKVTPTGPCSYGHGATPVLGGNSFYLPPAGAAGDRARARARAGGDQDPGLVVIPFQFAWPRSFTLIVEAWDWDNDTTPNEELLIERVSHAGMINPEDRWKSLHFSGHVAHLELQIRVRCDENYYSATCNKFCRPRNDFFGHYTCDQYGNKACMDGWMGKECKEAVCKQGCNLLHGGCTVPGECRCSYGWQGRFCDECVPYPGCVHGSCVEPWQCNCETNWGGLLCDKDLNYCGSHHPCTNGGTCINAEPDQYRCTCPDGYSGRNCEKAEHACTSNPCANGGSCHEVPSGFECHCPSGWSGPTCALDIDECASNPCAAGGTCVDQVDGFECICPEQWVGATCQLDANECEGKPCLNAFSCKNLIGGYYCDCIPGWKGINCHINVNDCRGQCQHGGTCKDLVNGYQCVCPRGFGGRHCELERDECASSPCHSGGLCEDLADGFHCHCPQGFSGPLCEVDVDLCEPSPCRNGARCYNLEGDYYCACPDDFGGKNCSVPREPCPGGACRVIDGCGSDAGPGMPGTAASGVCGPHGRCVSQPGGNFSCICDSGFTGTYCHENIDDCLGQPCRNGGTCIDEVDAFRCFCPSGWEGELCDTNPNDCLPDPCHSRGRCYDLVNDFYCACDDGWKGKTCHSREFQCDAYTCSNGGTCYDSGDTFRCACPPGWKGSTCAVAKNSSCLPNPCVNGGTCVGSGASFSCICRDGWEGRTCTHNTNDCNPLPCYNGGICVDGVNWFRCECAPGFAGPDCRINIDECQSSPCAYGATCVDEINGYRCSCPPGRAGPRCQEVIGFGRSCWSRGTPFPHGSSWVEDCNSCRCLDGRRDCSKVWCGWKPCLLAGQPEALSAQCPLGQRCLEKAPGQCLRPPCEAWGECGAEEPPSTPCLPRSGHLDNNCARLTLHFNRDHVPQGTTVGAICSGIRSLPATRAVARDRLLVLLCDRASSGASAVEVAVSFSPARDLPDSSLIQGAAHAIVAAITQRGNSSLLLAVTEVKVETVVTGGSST
Protocol: An ELISA assay was also carried out to determine the ability of the identified antibodies to bind to human JAG2. A 96-well ELISA plate was coated with human JAG2-Fc overnight. The next morning the plate was blocked with casein solution for 1 hour, followed by addition of serially diluted JG1H7 and JG1B10 IgG antibodies. As a control, antibodies were added to wells that were not coated with JAG2-Fc. After incubating for an hour, the plate was washed and labeled goat anti-human FD antibody was added for 30 minutes. The plate was washed, developed with substrate and the absorbance in each well measured on a spectrophotometer.

[6] = biological target: T1, biotinylated human delta-like 1 (DLL1); assay: capture ELISA: B10 IgG captured on anti-human lambda, serially diluted biotinylated DLL1, neutravidin-AP, PNPP, absorbance
Protocol: as §1

EC50 [2] [µM] | Binder | IC50 (nM) of killing of Calu-6 cells by the antibody pre-complexed with Protein G-DM1 (1:4), Cell Titer Glo after 6 days [1] [nM] | also measured
0.027 | JG1H11 (antibody, V domains shown) VH: EVQLVESGGGVVQPGRSLRLSCAASGFTFSSYGMHWVRQAPGKGLEWVAVISYDGSNKYYADSVKGRFTISRDNSKNTLYLQMNSLRAEDTAVYYCAKDDWNYALDYWGQGTLVTVSS VL: QPVLTQPASVSGSPGQSITISCTGTRSDVGGYSYVSWYQQHPGKAPKLIYDVTKRPSGVSNRFSGSKSGNTASLTISGLQAEDEADYYCSSYTSSSTYVFGTGTKVTVL | 26.5 | 
0.016 | JG1H7 (antibody, V domains shown, captured by anti-human Fc in the BiaCore assay) VH: QVQLVQSGGGLIQPGGSLRLSCAASAFTVSNFYMTWVRQAPGKGLEWVSVIDSGGNTYYADSVRGRFTISRDNSKNTLFLQMNSLRAEDTAVYYCARDLGYYYAMDVWGQGTTVTVSS VL: DIVMTQSPSSLSASVGDRVTITCRASQSISTSLNWYQQKPGKAPKLLIYAASSLQSGVPSRFSGSGSGTDFTLTISSLQPEDFATYYCQQSYSTPTFGQGTKLEIK | 3.89 | binding result [3]: no binding; Ka [4]: 4.8e+06 M⁻¹; Kd [4]: 0.208 µM; koff [4]: 0.0411 s⁻¹; kon [4]: 197000 M⁻¹ s⁻¹; EC50 (read off the curve) [5]: ~0.1 mg/L
0.016 | JG1C8 (antibody, V domains shown) VH: EVQLVQSGAEVKKPGSSVKVSCKASGGTFSSYAISWVRQAPGQGLEWMGWISAYNGNTNYAQKLQGRVTMTTDTSTSTAYMELRSLRSDDTAVYYCARSRYDFWSGYYSGMDVWGQGTTVTVSS VL: NFMLTQPRSVSGSPGQSVTISCTGTSSDVGGYHYVSWYQQHPGKAPKLIIYDVSRRPSGVPDRFSGSKSGNTASLTVSGLQAEDEADYYCSSYGGSNNFVFGTGTKLTVL | 87.3 | 
0.097 | JH1F4 (antibody, V domains shown, also called JH-F4) VH: QVQLVQSGAEVKKPGASVKVSCKASGYTFTSYAMHWVRHAPGQRLEWMGWINAGNGNTKYSQKFQGRVTITRDTSASTAYMELSSLRSEDTAVYYCARDLDYYYGMDVWGQGTTVTVSS VL: QPVLTQPPSASGTPGQRVTISCSGSSSNIGSNIVNWYQQLPGTAPKLLIYSNNRRPSGVPDRFSGSKSGSSASLAISGLQSEDEADYYCAAWDATLGGLYVFGTGTKVTVL |  | 
< 0.001 | JG1A7 (antibody, V domains shown) VH: QVQLVESGGGLVKPGGSLRLSCAASGFTFSDYYMSWIRQAPGKGLEWVSYISSSGSTIYYADSVKGRFTISRDNAKNSLYLQMNSLRAEDTAVYYCARVNSGYDAVDYWGQGTLVTVSS VL: QSALTQPPSVSGAPGQTVTISCTGSRSNIGTYDVHWYQQFAGSAPKLLIYHNNDRSSGVPDRFSGSKSGTSASLAITGLQAEDEAVYFCQSHDNVLGGVFGGGTKLTVL |  | 
0.032 | JG1B10 (antibody, V domains shown, also called B10JAG1) VH: EVQLVESGGGLVQPGGSLRLSCAASGSTFSSYGMHWVRQAPGKGLEWVAVIWYDGSNKYYADSVKGRFTISRDNSKNTLYLQMNSLRAEDTAVYYCARGYNHDYWGQGTLVTVSS VL: LPVLTQPASVSGSPGQSITISCTGTSSDVGGYNYVSWYQQHPGKAPKLMIYDVSNRPSGVSNRFSGSKSGNTASLTISGLQAEDEADYYCSSYTSSSTYVFGIGTKLTVL | 1.35 | binding result [6]: no binding
